Measured values taken from patent US20070148163A1 (Kyowa Kirin, published 2007).
cellulose membrane = not defined here

T1: 41st of the 82 13-mer peptides covering the extracellular region of CD40 (cysteine pairing not given here; reading uncertain)
T1 construct: also called 41st peptide
T1 peptide: Ac-TICTCEEGWHCTS-{cellulose membrane}

T2: 42nd of the 82 13-mer peptides covering the extracellular region of CD40 (cysteine pairing not given here; reading uncertain)
T2 construct: also called 42nd peptide
T2 peptide: Ac-CTCEEGWHCTSEA-{cellulose membrane}

T3: 20th of the 82 13-mer peptides covering the extracellular region of CD40 (cysteine pairing not given here; reading uncertain)
T3 construct: also called 20th peptide
T3 peptide: Ac-CLPCGESEFLDTW-{cellulose membrane}

T4: 24th of the 82 13-mer peptides covering the extracellular region of CD40 (reading uncertain)
T4 construct: also called 24th peptide
T4 peptide: Ac-FLDTWNRETHCHQ-{cellulose membrane}

T5: 23rd of the 82 13-mer peptides covering the extracellular region of CD40 (reading uncertain)
T5 construct: also called 23rd peptide
T5 peptide: Ac-SEFLDTWNRETHC-{cellulose membrane}

T6: 21st of the 82 13-mer peptides covering the extracellular region of CD40 (reading uncertain)
T6 construct: also called 21st peptide
T6 peptide: Ac-PCGESEFLDTWNR-{cellulose membrane}

T7: 22nd of the 82 13-mer peptides covering the extracellular region of CD40 (reading uncertain)
T7 construct: also called 22nd peptide
T7 peptide: Ac-GESEFLDTWNRET-{cellulose membrane}


Key:
[1] = molecular target: T8, human CD40 expressed on cells (Ramos, T24, Hs 766T, Capan-2) (human, UniProt P25942 21-277); assay: cell-based or functional assay
T8 sequence (P25942 21-277): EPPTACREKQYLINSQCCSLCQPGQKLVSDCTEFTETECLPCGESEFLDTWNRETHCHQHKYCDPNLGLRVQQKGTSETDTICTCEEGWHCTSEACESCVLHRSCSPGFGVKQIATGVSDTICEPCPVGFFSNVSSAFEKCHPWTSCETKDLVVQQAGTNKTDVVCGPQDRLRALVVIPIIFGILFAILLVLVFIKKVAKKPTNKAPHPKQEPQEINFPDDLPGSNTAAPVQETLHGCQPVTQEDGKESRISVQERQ

[2] = molecular target: T1, 41st of the 82 13-mer peptides covering …; assay: SPOT peptide array (13-mers on cellulose membrane), Western-type detection, spot intensity by LumiImager
Procedure: (§1) The reaction thereafter was carried out based on a conventional Western analysis (see Reineke, U. et al. (2001), “Epitope mapping with synthetic peptides prepared by SPOT synthesis.” Antibody Engineering (Springer Lab Manual) Eds.: Kontermann/Dubel, 433-459, for example). In the analysis, coloring intensity of each spot was quantified using Lumilmager™ (Boehringer-Mannheim Corp.) (FIG. 1A-1, 1A-2, 1B-1 and B-2).

[3] = molecular target: T2, 42nd of the 82 13-mer peptides covering …; assay: as above
Procedure: as §1

[4] = molecular target: T3, 20th of the 82 13-mer peptides covering …; assay: as above
Procedure: as §1

[5] = molecular target: T4, 24th of the 82 13-mer peptides covering …; assay: as above
Procedure: as §1

[6] = molecular target: T5, 23rd of the 82 13-mer peptides covering …; assay: as above
Procedure: as §1

[7] = molecular target: T6, 21st of the 82 13-mer peptides covering …; assay: as above
Procedure: as §1

[8] = molecular target: T7, 22nd of the 82 13-mer peptides covering …; assay: as above
Procedure: as §1

[9] = molecular target: T9, CD40mut2 (mutant CD40-FC fusion protein) (UniProt P25942 21-193, limits assumed); assay: ELISA on mutant CD40-FC fusion protein
T9 construct: Human CD40 implied
T9 sequence (P25942 other isoform, or with tags, fused parts or gaps mutant limits assumed): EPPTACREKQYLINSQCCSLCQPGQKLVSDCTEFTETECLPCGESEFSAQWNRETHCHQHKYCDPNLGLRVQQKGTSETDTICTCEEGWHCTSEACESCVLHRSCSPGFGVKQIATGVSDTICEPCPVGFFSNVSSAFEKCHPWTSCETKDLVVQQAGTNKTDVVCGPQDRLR

[10] = molecular target: T8, human CD40 expressed on cells (Ramos, …); assay: flow cytometry on Ramos cells

| CD95 expression enhancing activity in Ramos cells, reduction against IgG2 [1] [%] | binding result [10] | Binder | other results |
| --- | --- | --- | --- |
| ≥ 10 | – | KM341-1-19 antibody, constant region converted into IgG1 (antibody, V domains shown) VH: QVQLQQSGPGLVKPSQTLSLTCAISGDSVSSNSATWNWIRQSPSRDLEWLGRTYYRSKWYRDYVGSVKSRIIINPDTSNNQFSLQLNSVTPEDTAIYYCTRAQWLGGDYPYYYSMDVWGQGTTVTVSS VL: EIVLTQSPATLSLSPGERATLSCRASQSVSSYLAWYQQKPGQAPRLLIYDASNRATGIPARFSGSGSGTDFTLTISSLEPEDFAVYYCQQRSNTFGPGTKVDIK | – |
| ≥ 10 | – | KM341-1-19 antibody, constant region converted into IgG4 (antibody, V domains shown) VH: QVQLQQSGPGLVKPSQTLSLTCAISGDSVSSNSATWNWIRQSPSRDLEWLGRTYYRSKWYRDYVGSVKSRIIINPDTSNNQFSLQLNSVTPEDTAIYYCTRAQWLGGDYPYYYSMDVWGQGTTVTVSS VL: EIVLTQSPATLSLSPGERATLSCRASQSVSSYLAWYQQKPGQAPRLLIYDASNRATGIPARFSGSGSGTDFTLTISSLEPEDFAVYYCQQRSNTFGPGTKVDIK | – |
| – | – | KM341-1-19 antibody (original IgG2) (antibody, Human IgG2; also called original KM341-1-19 antibody) heavy: QVQLQQSGPGLVKPSQTLSLTCAISGDSVSSNSATWNWIRQSPSRDLEWLGRTYYRSKWYRDYVGSVKSRIIINPDTSNNQFSLQLNSVTPEDTAIYYCTRAQWLGGDYPYYYSMDVWGQGTTVTVSSASTKGPSVFPLAPCSRSTSESTAALGCLVKDYFPEPVTVSWNSGALTSGVHTFPAVLQSSGLYSLSSVVTVPSSNFGTQTYTCNVDHKPSNTKVDKTVERKCCVECPPCPAPPVAGPSVFLFPPKPKDTLMISRTPEVTCVVVDVSHEDPEVQFNWYVDGVEVHNAKTKPREEQFNSTFRVVSVLTVVHQDWLNGKEYKCKVSNKGLPAPIEKTISKTKGQPREPQVYTLPPSREEMTKNQVSLTCLVKGFYPSDIAVEWESNGQPENNYKTTPPMLDSDGSFFLYSKLTVDKSRWQQGNVFSCSVMHEALHNHYTQKSLSLSPGK VL: EIVLTQSPATLSLSPGERATLSCRASQSVSSYLAWYQQKPGQAPRLLIYDASNRATGIPARFSGSGSGTDFTLTISSLEPEDFAVYYCQQRSNTFGPGTKVDIK | binding result [2]: binds; binding result [3]: binds |
| ≥ 10 | – | KM341-1-19 antibody, constant region converted into IgG3 (antibody, V domains shown) VH: QVQLQQSGPGLVKPSQTLSLTCAISGDSVSSNSATWNWIRQSPSRDLEWLGRTYYRSKWYRDYVGSVKSRIIINPDTSNNQFSLQLNSVTPEDTAIYYCTRAQWLGGDYPYYYSMDVWGQGTTVTVSS VL: EIVLTQSPATLSLSPGERATLSCRASQSVSSYLAWYQQKPGQAPRLLIYDASNRATGIPARFSGSGSGTDFTLTISSLEPEDFAVYYCQQRSNTFGPGTKVDIK | – |
| – | binds | 4D11 antibody (original subclass IgG1) (antibody, V domains shown, also called 4D11G1) VH: QLQLQESGPGLLKPSETLSLTCTVSGGSISSPGYYGGWIRQPPGKGLEWIGSIYKSGSTYHNPSLKSRVTISVDTSKNQFSLKLSSVTAADTAVYYCTRPVVRYFGWFDPWGQGTLVTVSS VL: AIQLTQSPSSLSASVGDRVTITCRASQGISSALAWYQQKPGKAPKLLIYDASNLESGVPSRFSGSGSGTDFTLTISSLQPEDFATYYCQQFNSYPTFGQGTKVEIK | binding result [2]: binds; binding result [4]: binds; binding result [5]: binds; binding result [6]: binds; binding result [7]: binds; binding result [8]: binds; binding result [9]: binds |
| – | binds | 4D11 antibody IgG4 (antibody, V domains shown, Human IgG4 constant region (vector N5KG4), no point mutation; also called 4D11 IgG4) VH: QLQLQESGPGLLKPSETLSLTCTVSGGSISSPGYYGGWIRQPPGKGLEWIGSIYKSGSTYHNPSLKSRVTISVDTSKNQFSLKLSSVTAADTAVYYCTRPVVRYFGWFDPWGQGTLVTVSS VL: AIQLTQSPSSLSASVGDRVTITCRASQGISSALAWYQQKPGKAPKLLIYDASNLESGVPSRFSGSGSGTDFTLTISSLQPEDFATYYCQQFNSYPTFGQGTKVEIK | – |
| – | binds | 4D11G4P (4D11 antibody, IgG4 with S228P) (antibody, V domains shown, Human IgG4 constant region with point mutation S228P (EU index; vector N5KG4P); also called IgG4P) VH: QLQLQESGPGLLKPSETLSLTCTVSGGSISSPGYYGGWIRQPPGKGLEWIGSIYKSGSTYHNPSLKSRVTISVDTSKNQFSLKLSSVTAADTAVYYCTRPVVRYFGWFDPWGQGTLVTVSS VL: AIQLTQSPSSLSASVGDRVTITCRASQGISSALAWYQQKPGKAPKLLIYDASNLESGVPSRFSGSGSGTDFTLTISSLQPEDFATYYCQQFNSYPTFGQGTKVEIK | – |
| – | binds | 4D11G4PE (4D11 antibody, IgG4 with S228P and L235E) (antibody, V domains shown, also called IgG4PE; 4D11 antibody G4PE) VH: QLQLQESGPGLLKPSETLSLTCTVSGGSISSPGYYGGWIRQPPGKGLEWIGSIYKSGSTYHNPSLKSRVTISVDTSKNQFSLKLSSVTAADTAVYYCTRPVVRYFGWFDPWGQGTLVTVSS VL: AIQLTQSPSSLSASVGDRVTITCRASQGISSALAWYQQKPGKAPKLLIYDASNLESGVPSRFSGSGSGTDFTLTISSLQPEDFATYYCQQFNSYPTFGQGTKVEIKR | – |
| ≥ 10 | – | 2105 antibody, constant region converted into IgG1 (antibody, V domains shown) VH: EVQLVESGGGLVQPGRSLRLSCAASGFTFDDYAMHWVRQAPGKGLEWVSGISWNSGSLVHADSVKGRFTISRDNAKNSLYLQMNSLRAEDTALYYCARDRLFRGVRYYGMDVWGQGTTVTVSS VL: EIVLTQSPATLSLSPGERATLSCRASQSVSSYLAWYQQKPGQAPRLLIYDASNRATGIPARFSGSGSGTDFTLTISSLEPEDFAVYYCQQRSHWLTFGGGTKVEIK | – |
| ≥ 10 | – | 2105 antibody, constant region converted into IgG3 (antibody, V domains shown) VH: EVQLVESGGGLVQPGRSLRLSCAASGFTFDDYAMHWVRQAPGKGLEWVSGISWNSGSLVHADSVKGRFTISRDNAKNSLYLQMNSLRAEDTALYYCARDRLFRGVRYYGMDVWGQGTTVTVSS VL: EIVLTQSPATLSLSPGERATLSCRASQSVSSYLAWYQQKPGQAPRLLIYDASNRATGIPARFSGSGSGTDFTLTISSLEPEDFAVYYCQQRSHWLTFGGGTKVEIK | – |
| ≥ 10 | – | 2105 antibody, constant region converted into IgG4 (antibody, V domains shown) VH: EVQLVESGGGLVQPGRSLRLSCAASGFTFDDYAMHWVRQAPGKGLEWVSGISWNSGSLVHADSVKGRFTISRDNAKNSLYLQMNSLRAEDTALYYCARDRLFRGVRYYGMDVWGQGTTVTVSS VL: EIVLTQSPATLSLSPGERATLSCRASQSVSSYLAWYQQKPGQAPRLLIYDASNRATGIPARFSGSGSGTDFTLTISSLEPEDFAVYYCQQRSHWLTFGGGTKVEIK | – |
